From US20060100146A1, “AWAT-related methods and articles” (priority 2004, published 2006)
Values joined by “and” are separate entries in the source; they are usually repeats but may differ in a detail not shown here. Equal values may be shown once.

Experiments:
[1] = system: TAG formation from dioleoylglycerol and [14C]oleoyl-CoA; assay: In vitro DGAT (diacylglycerol esterification) assay in yeast microsomes; assay type: biochemical; details: microsomes from TG-null yeast expressing the human enzyme; dioleoylglycerol + [14C]oleoyl-CoA; TAG formed; vector control subtracted; mean +/- Std. dev., 3 replicate experiments
Method: (§1) A dilute inoculation of each strain into 500 mL of SC-His+2% galactose+1% raffinose was grown overnight at 30° C. into log phase. Cells were washed and lysed, and microsomes were prepared from a 100,000 g spin, as previously described (39). Protein concentrations were determined (40) and diacylglycerol esterification assays were performed as described previously (17,19,41). In brief, microsomes (100 μg) were preincubated for 5 min at 37° in 100 mM TRIS, pH 7.5 containing 0.25 M sucrose, 1 mM EDTA, 10 mM MgCl2, 20 μM fatty acid free BSA, 160 μM dioleoylglycerol (in 5 μl acetone, final volume 200 μl). The reaction was initiated by the addition of [^14C]oleoyl-CoA (10-20,000 dpm/nmol, 40 μM) and stopped after 10 min by the addition of 4 ml of chloroform:methanol (2:1 v/v). Carrier TAG (10 μg) and internal standard ([^3H]triolein, 30,000 dpm) were added followed by 0.8 ml water to separate phases. The lower chloroform layer containing the lipids was removed, evaporated to dryness, resuspended in 50 μl chloroform and individual lipid classes separated on Varian chromatography paper using a hexane:diethyl ether:acetic acid (170:30:1 v/v) mobile phase. The spot corresponding to TG was cut out and counted.
(§2) Microsomes from TG-null yeast strains transformed with human DGAT2, DGA2, hDC3, or hDC4 were incubated in the presence of dioleoylglycerol or cetyl alcohol and [^14C]oleoyl-CoA and assayed for esterification as described in Experimental Procedures. Data are expressed as pmol of neutral lipid (TAG or Wax ester) formed per min/mg protein as a mean±Std. dev. DGAT activities are from 3 replicate experiments and AWAT activities are from a representative experiment performed in triplicate. Background levels to the assay from strains transformed with vector control have been subtracted.

[2] = system: wax ester formation from cetyl alcohol and oleoyl-CoA; assay: In vitro AWAT (acyl-CoA wax alcohol acyltransferase) assay in yeast microsomes; assay type: biochemical, human
Method: as §1
Acyl-CoA wax alcohol acyltransferase (AWAT) assays were performed as above with the following exceptions: 200 μM cetyl alcohol (unlabeled or [^14C]-labeled 10,000 dpm/nmol) was substituted for DAG, oleoyloleate was used as carrier, and reactions were incubated for 20 min in a final volume of 250 μl. After separation by TLC, the spot corresponding to wax ester was cut out and counted. For alcohol and acyl-CoA substrate specificity studies, microsomal preparations from DGA2 (20 μg) and hDC4 (10 μg) were used. Kill reactions and vector controls were included for all experiments. The various wax alcohols and acyl-Co A's were substituted for cetyl alcohol or oleoyl Co A at the concentrations specified above. Activity is presented as pmol/min/mg protein.
as §2

[3] = [14C]cetyl alcohol rather than radiolabeled oleoyl CoA as monitor of ester formation
[4] = microsomes from TG-null yeast expressing the human enzyme, cetyl alcohol + [14C]oleoyl-CoA, wax ester formed, vector control subtracted, mean +/- Std. dev., triplicate

| Molecule | DGAT Activity [1] | AWAT Activity [2, 3] [pmol/min/mg] | AWAT Activity [2, 4] |
| --- | --- | --- | --- |
| DGA2: acyl-CoA wax alcohol acyltransferase 1, synonym diacyl-glycerol acyltransferase 2; human enzyme expressed in yeast microsomes (protein, UniProt Q58HT5 1-328, looked up, yeast microsomes, acyl-CoA wax alcohol acyltransferase 1, synonym diacyl-glycerol acyltransferase 2; human enzyme expressed in yeast microsomes) Acyl-CoA wax alcohol …: MAHSKQPSHFQSLMLLQWPLSYLAIFWILQPLFVYLLFTSLWPLPVLYFAWLFLDWKTPERGGRRSAWVRNWCVWTHIRDYFPITILKTKDLSPEHNYLMGVHPHGLLTFGAFCNFCTEATGFSKTFPGITPHLATLSWFFKIPFVREYLMAKGVCSVSQPAINYLLSHGTGNLVGIVVGGVGEALQSVPNTTTLILQKRKGFVRTALQHGAHLVPTFTFGETEVYDQVLFHKDSRMYKFQSCFRRIFGFYCCVFYGQSFCQGSTGLLPYSRPIVTVVGEPLPLPQIEKPSQEMVDKYHALYMDALHKLFDQHKTHYGCSETQKLFFL | 7.8 +/− 3.2 pmol/min/mg protein | 113 | 31.7 pmol/min/mg protein and 31.7 +/− 17.4 pmol/min/mg protein |
| hDC4: acyl-CoA wax alcohol acyltransferase 2, synonym human DGAT candidate gene 4; human enzyme expressed in yeast microsomes (protein, UniProt Q6E213 1-333, looked up, yeast microsomes, acyl-CoA wax alcohol acyltransferase 2, synonym human DGAT candidate gene 4; human enzyme expressed in yeast microsomes) Acyl-CoA wax alcohol …: MLLPSKKDLKTALDVFAVFQWSFSALLITTTVIAVNLYLVVFTPYWPVTVLILTWLAFDWKTPQRGGRRFTCVRHWRLWKHYSDYFPLKLLKTHDICPSRNYILVCHPHGLFAHGWFGHFATEASGFSKIFPGITPYILTLGAFFWMPFLREYVMSTGACSVSRSSIDFLLTHKGTGNMVIVVIGGLAECRYSLPGSSTLVLKNRSGFVRMALQHGVPLIPAYAFGETDLYDQHIFTPGGFVNRFQKWFQSMVHIYPCAFYGRGFTKNSWGLLPYSRPVTTIVGEPLPMPKIENPSQEIVAKYHTLYIDALRKLFDQHKTKFGISETQELEII | 11.4 +/− 3.4 pmol/min/mg protein | 1232 | 1066 pmol/min/mg protein and 1066 +/− 18.6 pmol/min/mg protein |
| DGAT2: human diacylglycerol acyltransferase 2, expressed in TG-null yeast; microsomes assayed (protein, UniProt Q96PD7 1-388, looked up, yeast microsomes, human diacylglycerol acyltransferase 2, expressed in TG-null yeast; microsomes assayed) Diacylglycerol …: MKTLIAAYSGVLRGERQAEADRSQRSHGGPALSREGSGRWGTGSSILSALQDLFSVTWLNRSKVEKQLQVISVLQWVLSFLVLGVACSAILMYIFCTDCWLIAVLYFTWLVFDWNTPKKGGRRSQWVRNWAVWRYFRDYFPIQLVKTHNLLTTRNYIFGYHPHGIMGLGAFCNFSTEATEVSKKFPGIRPYLATLAGNFRMPVLREYLMSGGICPVSRDTIDYLLSKNGSGNAIIIVVGGAAESLSSMPGKNAVTLRNRKGFVKLALRHGADLVPIYSFGENEVYKQVIFEEGSWGRWVQKKFQKYIGFAPCIFHGRGLFSSDTWGLVPYSKPITTVVGEPITIPKLEHPTQQDIDLYHTMYMEALVKLFDKHKTKFGLPETEVLEVN | 65.4 pmol/min/mg protein and 65.4 +/− 3.4 pmol/min/mg protein |  | −11.5 +/− 1.3 pmol/min/mg protein |
